Patent CN103044552A (INST PATHOGEN BIOLOGY CAMS, dated 2013)

Legend:
[1] = biological target: T1, DEC-205分子 (human, on monocyte-derived human dendritic cells) (human, UniProt O60449 28-1722); experiment: flow cytometry on human monocyte-derived DC, FITC secondary antibody
T1 construct: whole, on cells; The assay itself used whole human DC

[2] = biological target: DEC-205 (antigen of the SPR measurement, form not stated) (UniProt O60449); experiment: SPR (CM5 chip coupled with anti-human secondary antibody; gradient 1000-62.5 nM)

T1 sequence (O60449 28-1722): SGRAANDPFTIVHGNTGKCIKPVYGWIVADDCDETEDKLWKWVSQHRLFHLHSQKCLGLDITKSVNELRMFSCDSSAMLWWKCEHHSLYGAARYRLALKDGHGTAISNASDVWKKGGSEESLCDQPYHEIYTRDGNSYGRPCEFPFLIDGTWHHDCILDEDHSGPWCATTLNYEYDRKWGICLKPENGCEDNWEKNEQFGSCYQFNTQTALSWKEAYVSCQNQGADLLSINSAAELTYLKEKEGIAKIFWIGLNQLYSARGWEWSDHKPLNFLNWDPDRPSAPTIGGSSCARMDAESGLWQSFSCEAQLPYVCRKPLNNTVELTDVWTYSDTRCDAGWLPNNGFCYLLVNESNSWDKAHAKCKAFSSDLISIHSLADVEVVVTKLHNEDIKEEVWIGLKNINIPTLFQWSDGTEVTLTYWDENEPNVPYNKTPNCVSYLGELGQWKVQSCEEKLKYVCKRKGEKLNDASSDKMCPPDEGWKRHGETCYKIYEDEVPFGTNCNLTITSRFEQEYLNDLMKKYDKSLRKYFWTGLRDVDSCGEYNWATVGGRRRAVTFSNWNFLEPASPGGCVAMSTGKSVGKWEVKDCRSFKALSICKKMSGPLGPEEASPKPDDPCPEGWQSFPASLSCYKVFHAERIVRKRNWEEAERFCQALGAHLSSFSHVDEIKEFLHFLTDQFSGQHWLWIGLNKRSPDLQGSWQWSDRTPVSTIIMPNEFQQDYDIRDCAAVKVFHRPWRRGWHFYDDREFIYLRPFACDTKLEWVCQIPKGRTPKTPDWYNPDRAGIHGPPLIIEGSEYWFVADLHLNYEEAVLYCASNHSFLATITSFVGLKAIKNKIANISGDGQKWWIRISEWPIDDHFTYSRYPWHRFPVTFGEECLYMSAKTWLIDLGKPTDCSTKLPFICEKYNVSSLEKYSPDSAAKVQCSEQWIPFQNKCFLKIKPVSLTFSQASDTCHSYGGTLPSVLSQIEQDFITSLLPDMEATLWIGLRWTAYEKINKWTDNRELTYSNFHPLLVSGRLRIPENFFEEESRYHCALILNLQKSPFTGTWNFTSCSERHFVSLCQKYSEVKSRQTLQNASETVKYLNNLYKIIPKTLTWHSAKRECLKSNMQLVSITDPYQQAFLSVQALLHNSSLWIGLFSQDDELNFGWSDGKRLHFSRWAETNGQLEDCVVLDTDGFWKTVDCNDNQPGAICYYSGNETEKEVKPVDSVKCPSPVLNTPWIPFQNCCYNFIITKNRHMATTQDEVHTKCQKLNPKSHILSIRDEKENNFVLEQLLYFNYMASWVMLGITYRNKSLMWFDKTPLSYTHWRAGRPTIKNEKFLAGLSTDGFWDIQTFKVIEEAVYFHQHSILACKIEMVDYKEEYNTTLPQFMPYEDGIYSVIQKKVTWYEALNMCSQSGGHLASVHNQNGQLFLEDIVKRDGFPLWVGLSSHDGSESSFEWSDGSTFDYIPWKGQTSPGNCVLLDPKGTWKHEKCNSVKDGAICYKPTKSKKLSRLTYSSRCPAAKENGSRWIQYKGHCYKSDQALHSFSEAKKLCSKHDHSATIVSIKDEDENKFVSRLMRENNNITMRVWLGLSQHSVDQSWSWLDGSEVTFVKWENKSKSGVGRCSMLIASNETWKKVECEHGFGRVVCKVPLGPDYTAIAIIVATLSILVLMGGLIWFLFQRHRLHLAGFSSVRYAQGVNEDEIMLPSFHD

B1: 人源化的抗树突状细胞表面DEC-205分子的单克隆抗体 (antibody, V domains shown)
VH: EVQLVESGGGLVQPGRSLRLSCAASGFTFSHYYMAWVRQAPGKGLEWVAYISTDGGTTYYRDSVKGRFTISRDNAKSTLYLQMNSLRAEDTAVYYCTTGQPGYNLDYFDYWGQGTLVTVSS
VL: DIQMTQSPSSLSASVGDRVTITCQASQDIGYWLAWYQLKPGKSPQLLIYGATSLADGVPSRFSGSGSGTDYTLTISSLQPEDIATYYCQQASSVPWTFGGGTKLEIK
notes: FITC-labelled in the internalisation assay
Does B1 bind [1]?
Result: binds

What about the Kd [2] of the same binder?
Its Kd is 16.7 nM.

What about the koff [2] of the same binder?
Its koff is 0.000137 s⁻¹.

And the kon [2]?
Its kon is 8220 M⁻¹ s⁻¹.
